Test results from US20110301073, “Novel DNA-binding proteins and uses thereof” (Sangamo BioSciences, Inc., published 2011).

What was measured:
TALE13 +28 FokI = biological target: T1, TALE13 +28 FokI (Xanthomonas axonopodis (engineered)); test: cleavage_in_vitro; two inverted sites, 16 bp gap; NEB Buffer 2, 37 C; settings: tags: FLAG, NLS, chain copies: 2
T1 chain: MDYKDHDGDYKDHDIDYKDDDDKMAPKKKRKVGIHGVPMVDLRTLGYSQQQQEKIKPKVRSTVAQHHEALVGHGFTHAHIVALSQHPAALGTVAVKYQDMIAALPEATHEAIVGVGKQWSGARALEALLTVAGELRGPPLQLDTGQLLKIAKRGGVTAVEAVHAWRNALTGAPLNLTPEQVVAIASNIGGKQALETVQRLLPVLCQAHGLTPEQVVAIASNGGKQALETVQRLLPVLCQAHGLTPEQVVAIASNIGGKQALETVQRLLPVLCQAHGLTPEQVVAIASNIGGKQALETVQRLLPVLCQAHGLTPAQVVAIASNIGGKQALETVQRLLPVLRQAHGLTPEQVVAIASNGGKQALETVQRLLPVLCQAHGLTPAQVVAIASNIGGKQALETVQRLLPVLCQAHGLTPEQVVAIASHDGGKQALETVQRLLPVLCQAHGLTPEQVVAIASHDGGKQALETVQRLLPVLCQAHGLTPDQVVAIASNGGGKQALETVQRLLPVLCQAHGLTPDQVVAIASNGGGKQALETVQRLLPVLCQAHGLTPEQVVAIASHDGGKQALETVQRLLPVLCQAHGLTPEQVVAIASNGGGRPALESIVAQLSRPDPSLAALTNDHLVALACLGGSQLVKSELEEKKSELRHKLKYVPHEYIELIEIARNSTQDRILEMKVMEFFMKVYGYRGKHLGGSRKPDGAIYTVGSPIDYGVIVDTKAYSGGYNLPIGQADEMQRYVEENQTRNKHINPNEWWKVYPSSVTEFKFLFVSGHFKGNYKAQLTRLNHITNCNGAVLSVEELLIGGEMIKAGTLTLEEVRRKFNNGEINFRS
Protocol: (§1) TALE domain fusions were also constructed using Fold cleavage half domains. For these examples, wild type FokI half cleavage domains were used so that for nuclease activity, a homodimer must be formed from two of the fusions. For these fusions, the TALE13 DNA binding domain was fused to each FokI half domain by cloning the TALE DNA binding domain into a plasmid adjacent to FokI-specifying sequence. In addition, various linkers were tested for use between the DNA binding domain and the nuclease domain. Linkers L2 and L8 were used which are as follows: L2=GS (SEQ ID NO:71) and L8=[…] (SEQ ID NO:72). The target sites were cloned into a TOPO2.1 target vector (Invitrogen) with varying gap spacings between each target binding site such that the two were separated from each other by 2 to 22 bp. PCR amplification of an approximately 1 kb region of the target vector was done to generate the target DNAs. The TALE DNA binding domains were also truncated as described previously, and are described using the same nomenclature as described above in Examples 2 and 6. The TALE domain nuclease fusion clones were expressed in the TNT Rabbit Reticulocyte Lysate system by adding 5 μL of water containing 250 nanograms of the nuclease fusion clone plasmid to 20 μL of lysate and incubating at 30° C. for 90 minutes.
(§2) The lysate was then used to cleave the target DNAs as follows: 2.5 μL of lysate were added to a 50 μL reaction containing 50 nanograms of PCR-amplified target DNA and a final Buffer 2 (New England Biolabs) concentration of 1×. The cleavage reaction was for one hour at 37° C., followed by a 20 minute heat inactivation stage at 65° C. The reaction was then centrifuged at high speed to separate the target DNA from the lysate, causing the lysate to condense into a pellet in the reaction well. The DNA-containing supernatant was pipetted off and run on an ethidium bromide-stained agarose gel (Invitrogen) to separate intact target DNA from cleaved target DNA. The agarose gel was then analyzed using AlphaEaseFC (Alpha Innotech) software to measure the amount of target DNA present in the large uncleaved DNA band and the two smaller DNA bands resulting from a single cleavage event of the target DNA. The percentage of cleaved DNA out of the total amount of target DNA loaded into the gel represents the percent cleavage in each reaction.

TALE13 +39 FokI = biological target: T2, TALE13 +39 FokI (Xanthomonas axonopodis (engineered)); test: as above; settings: tags: FLAG, NLS, chain copies: 2
T2 chain: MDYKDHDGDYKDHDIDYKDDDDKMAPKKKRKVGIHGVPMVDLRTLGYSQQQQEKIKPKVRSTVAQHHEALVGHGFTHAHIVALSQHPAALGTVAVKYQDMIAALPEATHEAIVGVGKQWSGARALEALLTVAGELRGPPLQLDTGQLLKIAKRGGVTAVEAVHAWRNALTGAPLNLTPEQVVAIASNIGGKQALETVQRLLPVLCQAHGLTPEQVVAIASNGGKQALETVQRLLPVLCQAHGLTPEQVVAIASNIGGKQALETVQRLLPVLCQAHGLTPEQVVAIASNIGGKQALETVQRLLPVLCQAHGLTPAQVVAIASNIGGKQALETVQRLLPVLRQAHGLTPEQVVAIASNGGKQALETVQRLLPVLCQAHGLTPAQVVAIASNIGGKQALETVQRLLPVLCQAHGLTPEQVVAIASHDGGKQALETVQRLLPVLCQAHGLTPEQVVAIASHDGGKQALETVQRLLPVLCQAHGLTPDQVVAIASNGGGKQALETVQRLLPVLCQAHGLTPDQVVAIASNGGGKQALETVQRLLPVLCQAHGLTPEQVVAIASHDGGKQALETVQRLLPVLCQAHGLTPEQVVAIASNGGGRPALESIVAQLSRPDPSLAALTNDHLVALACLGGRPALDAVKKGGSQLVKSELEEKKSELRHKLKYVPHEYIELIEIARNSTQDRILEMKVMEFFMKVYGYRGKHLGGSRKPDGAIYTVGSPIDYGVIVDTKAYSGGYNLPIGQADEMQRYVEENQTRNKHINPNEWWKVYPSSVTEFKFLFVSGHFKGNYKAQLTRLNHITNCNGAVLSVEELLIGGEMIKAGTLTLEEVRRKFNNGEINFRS
Protocol: as §1, §2

B1: TALE13 target (dsDNA)
DNA 1: TATAAATACCTTCT
DNA 2: AGAAGGTATTTATA
TALE13 +28 FokI
  activity: 100 % cleavage
TALE13 +39 FokI
  activity: 100 % cleavage
